# T1: RHPN1, Q8TCX5
# T1 sequence (Q8TCX5 508-602, limits assumed, looked up): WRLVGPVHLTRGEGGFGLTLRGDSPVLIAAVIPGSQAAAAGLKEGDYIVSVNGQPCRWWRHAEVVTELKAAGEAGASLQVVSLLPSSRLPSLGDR
# T2: TJP3_3, O95049
# T2 sequence (O95049 375-456, limits assumed, looked up): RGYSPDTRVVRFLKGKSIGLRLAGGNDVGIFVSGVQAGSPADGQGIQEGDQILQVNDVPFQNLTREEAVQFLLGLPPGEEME
# T3: LIN7C, Q9NUP9
# T3 sequence (Q9NUP9 88-185, limits assumed, looked up): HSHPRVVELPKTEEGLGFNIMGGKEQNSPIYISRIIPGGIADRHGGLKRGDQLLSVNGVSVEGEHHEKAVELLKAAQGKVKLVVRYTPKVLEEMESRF
# T4: DFNB31_1, Q9P202
# T4 sequence (Q9P202 135-233, limits assumed, looked up): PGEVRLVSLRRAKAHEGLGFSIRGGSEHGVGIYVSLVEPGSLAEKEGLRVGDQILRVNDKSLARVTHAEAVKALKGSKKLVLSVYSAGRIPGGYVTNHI
# T5: LRRC7, Q96NW7
# T5 sequence (Q96NW7 1440-1537, limits assumed, looked up): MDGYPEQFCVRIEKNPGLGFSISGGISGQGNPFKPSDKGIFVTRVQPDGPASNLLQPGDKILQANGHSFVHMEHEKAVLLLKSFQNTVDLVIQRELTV
# T6: SHANK1, Q9Y566
# T6 sequence (Q9Y566 658-767, limits assumed, looked up): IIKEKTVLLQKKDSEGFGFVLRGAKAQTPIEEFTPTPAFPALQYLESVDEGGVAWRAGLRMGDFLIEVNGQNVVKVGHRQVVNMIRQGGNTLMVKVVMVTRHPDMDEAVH
# T7: SNTG2, Q9NY99
# T7 sequence (Q9NY99 68-166, limits assumed, looked up): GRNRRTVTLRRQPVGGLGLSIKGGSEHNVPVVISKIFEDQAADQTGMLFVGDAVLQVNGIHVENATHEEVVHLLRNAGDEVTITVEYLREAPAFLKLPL
# T8: SYNJ2BP, P57105
# T8 sequence (P57105 8-110, limits assumed, looked up): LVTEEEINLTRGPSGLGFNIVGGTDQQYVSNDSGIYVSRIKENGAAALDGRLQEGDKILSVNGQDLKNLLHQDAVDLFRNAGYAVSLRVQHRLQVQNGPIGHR
# T9: MPDZ_12, O75970
# T9 sequence (O75970 1857-1958, limits assumed, looked up): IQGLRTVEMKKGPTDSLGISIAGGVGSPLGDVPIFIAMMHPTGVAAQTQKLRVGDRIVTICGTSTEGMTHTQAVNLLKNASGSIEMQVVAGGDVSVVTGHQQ
# Tests used:
# Experiment in all cases: holdup assay
# Parameters in all cases: key: below the threshold = too weak to quantify, mostly under pKd 3.1 to 4
# LNX1_1, Q8TBB1 = biological target: LNX1_1, Q8TBB1
# RHPN1, Q8TCX5 = biological target: T1, RHPN1, Q8TCX5
# IL16_3, Q14005 = biological target: IL16_3, Q14005
# DLG4_2, P78352 = biological target: DLG4_2, P78352
# MAGI1_1, Q96QZ7 = biological target: MAGI1_1, Q96QZ7
# Inadl_5, Q8NI35 = biological target: Inadl_5, Q8NI35
# DLG1_2, Q12959 = biological target: DLG1_2, Q12959
# SCRIB_2, Q14160 = biological target: SCRIB_2, Q14160
# TJP3_3, O95049 = biological target: T2, TJP3_3, O95049
# FRMPD4, Q14CM0 = biological target: FRMPD4, Q14CM0
# LIN7C, Q9NUP9 = biological target: T3, LIN7C, Q9NUP9
# PICK1, Q9NRD5 = biological target: PICK1, Q9NRD5
# DFNB31_1, Q9P202 = biological target: T4, DFNB31_1, Q9P202
# LRRC7, Q96NW7 = biological target: T5, LRRC7, Q96NW7
# Inadl_10, Q8NI35 = biological target: Inadl_10, Q8NI35
# FRMPD2_3, Q68DX3 = biological target: FRMPD2_3, Q68DX3
# FRMPD3, Q5JV73 = biological target: FRMPD3, Q5JV73
# NHERF4_1, Q86UT5-2 = biological target: NHERF4_1, Q86UT5-2
# SHANK1, Q9Y566 = biological target: T6, SHANK1, Q9Y566
# PDZRN4_1, Q6ZMN7 = biological target: PDZRN4_1, Q6ZMN7
# SNTG2, Q9NY99 = biological target: T7, SNTG2, Q9NY99
# HTRA2, O43464 = biological target: HTRA2, O43464
# Inadl_8, Q8NI35 = biological target: Inadl_8, Q8NI35
# TJP2_1, Q9UDY2 = biological target: TJP2_1, Q9UDY2
# FRMPD2_1, Q68DX3 = biological target: FRMPD2_1, Q68DX3
# SYNJ2BP, P57105 = biological target: T8, SYNJ2BP, P57105
# MAGI3_2, Q5TCQ9 = biological target: MAGI3_2, Q5TCQ9
# MPDZ_12, O75970 = biological target: T9, MPDZ_12, O75970
# [1] = plain residues with an end cap or a label only (N-terminal biotin on a linker: ado-ado)
# [2] = plain residues with an end cap or a label only (N-terminal biotin on a linker: ahx)
# Sequence of PDZRN4_1, Q6ZMN7 (Q6ZMN7 213-318): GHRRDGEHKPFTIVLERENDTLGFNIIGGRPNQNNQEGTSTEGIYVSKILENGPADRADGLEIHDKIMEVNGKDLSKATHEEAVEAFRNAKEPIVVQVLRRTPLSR
# Sequence of PICK1, Q9NRD5 (Q9NRD5 17-115): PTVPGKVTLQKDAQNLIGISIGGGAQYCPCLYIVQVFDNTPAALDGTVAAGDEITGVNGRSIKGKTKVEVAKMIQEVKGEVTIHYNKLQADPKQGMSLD
# Sequence of Inadl_10, Q8NI35 (Q8NI35 1673-1763): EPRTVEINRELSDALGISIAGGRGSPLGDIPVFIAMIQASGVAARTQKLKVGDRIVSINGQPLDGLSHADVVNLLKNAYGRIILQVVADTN
# Sequence of MAGI1_1, Q96QZ7 (Q96QZ7 1-106): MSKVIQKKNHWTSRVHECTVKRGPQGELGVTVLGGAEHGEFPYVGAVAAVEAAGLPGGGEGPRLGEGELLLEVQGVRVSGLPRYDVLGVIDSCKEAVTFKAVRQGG
# Sequence of DLG4_2, P78352 (P78352 155-259): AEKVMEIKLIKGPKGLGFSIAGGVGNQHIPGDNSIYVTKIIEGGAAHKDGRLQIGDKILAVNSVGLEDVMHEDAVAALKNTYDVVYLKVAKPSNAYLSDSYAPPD
# Sequence of NHERF4_1, Q86UT5-2 (Q86UT5 other isoform, or with tags, fused parts or gaps): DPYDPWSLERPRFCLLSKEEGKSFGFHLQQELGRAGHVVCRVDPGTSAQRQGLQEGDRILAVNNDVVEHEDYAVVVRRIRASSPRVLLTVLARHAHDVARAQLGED
# Sequence of SCRIB_2, Q14160 (Q14160 857-960): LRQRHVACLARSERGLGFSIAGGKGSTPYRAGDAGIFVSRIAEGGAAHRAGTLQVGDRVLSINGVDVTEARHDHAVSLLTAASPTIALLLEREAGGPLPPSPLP
# Sequence of Inadl_5, Q8NI35 (Q8NI35 673-780): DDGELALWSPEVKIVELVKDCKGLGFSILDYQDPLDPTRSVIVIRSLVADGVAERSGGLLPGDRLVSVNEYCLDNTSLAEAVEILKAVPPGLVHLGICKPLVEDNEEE
# Sequence of FRMPD3, Q5JV73 (Q5JV73 12-100): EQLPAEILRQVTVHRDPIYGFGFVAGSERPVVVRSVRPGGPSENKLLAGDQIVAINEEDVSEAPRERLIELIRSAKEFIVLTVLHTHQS
# Sequence of MAGI3_2, Q5TCQ9 (Q5TCQ9 398-503): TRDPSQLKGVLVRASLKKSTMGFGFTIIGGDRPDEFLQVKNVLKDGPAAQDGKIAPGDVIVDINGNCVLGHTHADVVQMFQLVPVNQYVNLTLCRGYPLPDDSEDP
# Sequence of LNX1_1, Q8TBB1 (Q8TBB1 261-371): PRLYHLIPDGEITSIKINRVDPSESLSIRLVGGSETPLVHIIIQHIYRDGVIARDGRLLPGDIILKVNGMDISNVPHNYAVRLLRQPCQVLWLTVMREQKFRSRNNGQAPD
# Sequence of FRMPD2_3, Q68DX3 (Q68DX3 1073-1166): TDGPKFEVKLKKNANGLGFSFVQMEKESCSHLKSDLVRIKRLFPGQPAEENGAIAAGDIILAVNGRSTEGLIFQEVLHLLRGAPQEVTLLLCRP
# Sequence of FRMPD4, Q14CM0 (Q14CM0 67-160): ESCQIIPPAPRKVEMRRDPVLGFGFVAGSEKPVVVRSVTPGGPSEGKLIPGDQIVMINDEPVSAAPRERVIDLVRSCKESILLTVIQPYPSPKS
# Sequence of DLG1_2, Q12959 (Q12959 314-412): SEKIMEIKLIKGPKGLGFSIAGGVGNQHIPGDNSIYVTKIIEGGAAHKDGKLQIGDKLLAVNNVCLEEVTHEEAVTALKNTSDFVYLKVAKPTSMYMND
# Sequence of FRMPD2_1, Q68DX3 (Q68DX3 770-861): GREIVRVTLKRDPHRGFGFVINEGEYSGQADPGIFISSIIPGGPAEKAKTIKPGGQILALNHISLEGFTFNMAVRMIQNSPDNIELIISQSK
# Sequence of TJP2_1, Q9UDY2 (Q9UDY2 24-128): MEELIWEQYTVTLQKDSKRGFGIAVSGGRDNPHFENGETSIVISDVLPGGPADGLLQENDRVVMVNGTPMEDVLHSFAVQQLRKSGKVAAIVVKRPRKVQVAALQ
# Sequence of Inadl_8, Q8NI35 (Q8NI35 1425-1530): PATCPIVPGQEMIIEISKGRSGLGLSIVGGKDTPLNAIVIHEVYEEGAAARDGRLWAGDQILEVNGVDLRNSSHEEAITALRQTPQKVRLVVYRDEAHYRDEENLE
# Sequence of IL16_3, Q14005 (Q14005 1107-1207): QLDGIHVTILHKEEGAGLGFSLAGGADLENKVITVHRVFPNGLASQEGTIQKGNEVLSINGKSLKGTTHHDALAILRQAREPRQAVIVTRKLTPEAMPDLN
# Sequence of HTRA2, O43464 (O43464 355-458): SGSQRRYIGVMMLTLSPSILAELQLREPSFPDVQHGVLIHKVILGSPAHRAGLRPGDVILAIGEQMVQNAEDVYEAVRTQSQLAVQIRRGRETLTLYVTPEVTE
binder,measurement,setting,value
"LPAVCYDIDI [PTTG2, Q9NZH5]",pKd,"LNX1_1, Q8TBB1; [1]",below the threshold
same,pKd,"RHPN1, Q8TCX5; [1]",below the threshold
same,pKd,"IL16_3, Q14005; [1]",below the threshold
same,pKd,"DLG4_2, P78352; [1]",below the threshold
same,pKd,"MAGI1_1, Q96QZ7; [1]",below the threshold
same,pKd,"Inadl_5, Q8NI35; [1]",below the threshold
same,pKd,"DLG1_2, Q12959; [1]",below the threshold
same,pKd,"SCRIB_2, Q14160; [1]",below the threshold
same,pKd,"TJP3_3, O95049; [1]",below the threshold
same,pKd,"FRMPD4, Q14CM0; [1]",below the threshold
same,pKd,"LIN7C, Q9NUP9; [1]",4.01
same,pKd,"PICK1, Q9NRD5; [1]",below the threshold
same,pKd,"DFNB31_1, Q9P202; [1]",below the threshold
same,pKd,"LRRC7, Q96NW7; [1]",below the threshold
same,pKd,"Inadl_10, Q8NI35; [1]",below the threshold
same,pKd,"FRMPD2_3, Q68DX3; [1]",below the threshold
same,pKd,"FRMPD3, Q5JV73; [1]",below the threshold
same,pKd,"NHERF4_1, Q86UT5-2; [1]",below the threshold
same,pKd,"SHANK1, Q9Y566; [1]",below the threshold
same,pKd,"PDZRN4_1, Q6ZMN7; [1]",below the threshold
same,pKd,"SNTG2, Q9NY99; [1]",below the threshold
same,pKd,"HTRA2, O43464; [1]",below the threshold
same,pKd,"Inadl_8, Q8NI35; [1]",below the threshold
same,pKd,"TJP2_1, Q9UDY2; [1]",below the threshold
same,pKd,"FRMPD2_1, Q68DX3; [1]",below the threshold
same,pKd,"SYNJ2BP, P57105; [1]",below the threshold
same,pKd,"MAGI3_2, Q5TCQ9; [1]",below the threshold
same,pKd,"MPDZ_12, O75970; [1]",3.48
"SVTSERETNI [SLC16A7, O60669]",pKd,"LNX1_1, Q8TBB1; [1]",below the threshold
same,pKd,"RHPN1, Q8TCX5; [1]",4.57
same,pKd,"IL16_3, Q14005; [1]",below the threshold
same,pKd,"DLG4_2, P78352; [1]",4.11
same,pKd,"MAGI1_1, Q96QZ7; [1]",below the threshold
same,pKd,"Inadl_5, Q8NI35; [1]",below the threshold
same,pKd,"DLG1_2, Q12959; [1]",4.42
same,pKd,"SCRIB_2, Q14160; [1]",3.69
same,pKd,"TJP3_3, O95049; [1]",below the threshold
same,pKd,"FRMPD4, Q14CM0; [1]",below the threshold
same,pKd,"LIN7C, Q9NUP9; [1]",4.11
same,pKd,"PICK1, Q9NRD5; [1]",below the threshold
same,pKd,"DFNB31_1, Q9P202; [1]",4.68
same,pKd,"LRRC7, Q96NW7; [1]",below the threshold
same,pKd,"Inadl_10, Q8NI35; [1]",below the threshold
same,pKd,"FRMPD2_3, Q68DX3; [1]",below the threshold
same,pKd,"FRMPD3, Q5JV73; [1]",below the threshold
same,pKd,"NHERF4_1, Q86UT5-2; [1]",below the threshold
same,pKd,"SHANK1, Q9Y566; [1]",below the threshold
same,pKd,"PDZRN4_1, Q6ZMN7; [1]",below the threshold
same,pKd,"SNTG2, Q9NY99; [1]",4.51
same,pKd,"HTRA2, O43464; [1]",below the threshold
same,pKd,"Inadl_8, Q8NI35; [1]",below the threshold
same,pKd,"TJP2_1, Q9UDY2; [1]",below the threshold
same,pKd,"FRMPD2_1, Q68DX3; [1]",below the threshold
same,pKd,"SYNJ2BP, P57105; [1]",3.63
same,pKd,"MAGI3_2, Q5TCQ9; [1]",below the threshold
same,pKd,"MPDZ_12, O75970; [1]",below the threshold
"QNTDDVQTSF [ACE2, Q9BYF1]",pKd,"LNX1_1, Q8TBB1; [2]",below the threshold
same,pKd,"RHPN1, Q8TCX5; [2]",4.38
same,pKd,"IL16_3, Q14005; [2]",below the threshold
same,pKd,"DLG4_2, P78352; [2]",below the threshold
same,pKd,"MAGI1_1, Q96QZ7; [2]",below the threshold
same,pKd,"Inadl_5, Q8NI35; [2]",below the threshold
same,pKd,"DLG1_2, Q12959; [2]",3.54
same,pKd,"SCRIB_2, Q14160; [2]",below the threshold
same,pKd,"TJP3_3, O95049; [2]",below the threshold
same,pKd,"FRMPD4, Q14CM0; [2]",3.67
same,pKd,"LIN7C, Q9NUP9; [2]",below the threshold
same,pKd,"PICK1, Q9NRD5; [2]",below the threshold
same,pKd,"DFNB31_1, Q9P202; [2]",3.47
same,pKd,"LRRC7, Q96NW7; [2]",below the threshold
same,pKd,"Inadl_10, Q8NI35; [2]",below the threshold
same,pKd,"FRMPD2_3, Q68DX3; [2]",below the threshold
same,pKd,"FRMPD3, Q5JV73; [2]",3.78
same,pKd,"NHERF4_1, Q86UT5-2; [2]",3.65
same,pKd,"SHANK1, Q9Y566; [2]",4.75
same,pKd,"PDZRN4_1, Q6ZMN7; [2]",below the threshold
same,pKd,"SNTG2, Q9NY99; [2]",below the threshold
same,pKd,"HTRA2, O43464; [2]",below the threshold
same,pKd,"Inadl_8, Q8NI35; [2]",below the threshold
same,pKd,"TJP2_1, Q9UDY2; [2]",below the threshold
same,pKd,"FRMPD2_1, Q68DX3; [2]",below the threshold
same,pKd,"SYNJ2BP, P57105; [2]",below the threshold
same,pKd,"MAGI3_2, Q5TCQ9; [2]",below the threshold
same,pKd,"MPDZ_12, O75970; [2]",below the threshold
"GEDRSPPTAL [MKNK1, Q9BUB5]",pKd,"LNX1_1, Q8TBB1; [1]",below the threshold
same,pKd,"RHPN1, Q8TCX5; [1]",below the threshold
same,pKd,"IL16_3, Q14005; [1]",below the threshold
same,pKd,"DLG4_2, P78352; [1]",below the threshold
same,pKd,"MAGI1_1, Q96QZ7; [1]",below the threshold
same,pKd,"Inadl_5, Q8NI35; [1]",below the threshold
same,pKd,"DLG1_2, Q12959; [1]",below the threshold
same,pKd,"SCRIB_2, Q14160; [1]",below the threshold
same,pKd,"TJP3_3, O95049; [1]",below the threshold
same,pKd,"FRMPD4, Q14CM0; [1]",4.01
same,pKd,"LIN7C, Q9NUP9; [1]",4.02
same,pKd,"PICK1, Q9NRD5; [1]",below the threshold
same,pKd,"DFNB31_1, Q9P202; [1]",below the threshold
same,pKd,"LRRC7, Q96NW7; [1]",below the threshold
same,pKd,"Inadl_10, Q8NI35; [1]",below the threshold
same,pKd,"FRMPD2_3, Q68DX3; [1]",below the threshold
same,pKd,"FRMPD3, Q5JV73; [1]",below the threshold
same,pKd,"NHERF4_1, Q86UT5-2; [1]",4.34
same,pKd,"SHANK1, Q9Y566; [1]",below the threshold
same,pKd,"PDZRN4_1, Q6ZMN7; [1]",below the threshold
same,pKd,"SNTG2, Q9NY99; [1]",3.7
same,pKd,"HTRA2, O43464; [1]",below the threshold
same,pKd,"Inadl_8, Q8NI35; [1]",below the threshold
same,pKd,"TJP2_1, Q9UDY2; [1]",below the threshold
same,pKd,"FRMPD2_1, Q68DX3; [1]",below the threshold
same,pKd,"SYNJ2BP, P57105; [1]",below the threshold
same,pKd,"MAGI3_2, Q5TCQ9; [1]",below the threshold
same,pKd,"MPDZ_12, O75970; [1]",below the threshold

# From publication PMC9482650, “Quantitative fragmentomics allow affinity mapping of interactomes” (Nature Communications, 2022)
